Assay results reported in article PMC10397247.

How the values were obtained:
[1] = biological target: T1, O5-bS; assay: two-hybrid library CCNG1;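 further: natural log of median RNA to DNA barcode read ratio; higher means stronger binding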
T1 chain: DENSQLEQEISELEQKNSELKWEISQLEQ

[2] = biological target: T2, O7-bS; assay: two-hybrid library CCNG1;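 further: natural log of median RNA to DNA barcode read ratio; higher means stronger binding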
T2 chain: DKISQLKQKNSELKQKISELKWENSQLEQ

[3] = biological target: T3, O9-bS; assay: two-hybrid library CCNG1;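 further: natural log of median RNA to DNA barcode read ratio; higher means stronger binding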
T3 chain: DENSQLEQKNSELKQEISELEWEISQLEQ

[4] = biological target: T4, O8-bS; assay: two-hybrid library CCNG1;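 further: natural log of median RNA to DNA barcode read ratio; higher means stronger binding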
T4 chain: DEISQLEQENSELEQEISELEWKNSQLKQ

[5] = biological target: T5, O6-bS; assay: two-hybrid library CCNG1
T5 chain: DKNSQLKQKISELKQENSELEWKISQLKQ

[6] = biological target: T6, 4H2604-AA; assay: two-hybrid library CCmax
T6 chain: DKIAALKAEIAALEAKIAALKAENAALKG

[7] = biological target: T7, 4H2961-AA; assay: two-hybrid library CCmax; details: mean of both orientations
T7 chain: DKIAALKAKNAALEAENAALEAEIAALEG

[8] = biological target: T8, 4H432-AA; assay: two-hybrid library CCmax; details: mean of both orientations
T8 chain: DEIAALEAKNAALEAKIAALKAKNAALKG

[9] = biological target: T9, 4H3049-AA; assay: two-hybrid library CCmax; details: mean of both orientations
T9 chain: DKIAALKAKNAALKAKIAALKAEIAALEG

[10] = biological target: T10, 4H3619-AA; assay: two-hybrid library CCmax; details: mean of both orientations
T10 chain: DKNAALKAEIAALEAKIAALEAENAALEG

[11] = biological target: T11, 4H3094-AA; assay: two-hybrid library CCmax; details: mean of both orientations
T11 chain: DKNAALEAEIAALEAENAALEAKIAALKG

[12] = biological target: T12, 4H3915-AA; assay: two-hybrid library CCmax; details: mean of both orientations
T12 chain: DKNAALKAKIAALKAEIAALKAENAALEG

[13] = biological target: T13, 4H2774-AA; assay: two-hybrid library CCmax; details: mean of both orientations
T13 chain: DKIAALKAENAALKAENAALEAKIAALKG

[14] = biological target: T14, 4H2760-AA; assay: two-hybrid library CCmax; details: mean of both orientations
T14 chain: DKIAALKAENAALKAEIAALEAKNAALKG

[15] = biological target: T15, 4H3449-AA; assay: two-hybrid library CCmax; details: mean of both orientations
T15 chain: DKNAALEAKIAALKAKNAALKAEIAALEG

[16] = biological target: T16, 4H3629-AA; assay: two-hybrid library CCmax; details: mean of both orientations
T16 chain: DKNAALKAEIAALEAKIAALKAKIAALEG

[17] = biological target: T17, 4H3777-AA; assay: two-hybrid library CCmax; details: mean of both orientations
T17 chain: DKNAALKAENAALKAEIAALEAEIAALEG

[18] = biological target: T18, 4H341-AA; assay: two-hybrid library CCmax; details: mean of both orientations
T18 chain: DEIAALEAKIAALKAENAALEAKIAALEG

[19] = biological target: T19, 4H380-AA; assay: two-hybrid library CCmax; details: mean of both orientations
T19 chain: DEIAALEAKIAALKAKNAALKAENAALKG

[20] = biological target: T20, 4H63-AA; assay: two-hybrid library CCmax; details: mean of both orientations
T20 chain: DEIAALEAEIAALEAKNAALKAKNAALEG

[21] = biological target: T21, 4H2621-AA; assay: two-hybrid library CCmax; details: mean of both orientations
T21 chain: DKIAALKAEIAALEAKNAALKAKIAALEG

[22] = biological target: T22, 4H3974-AA; assay: two-hybrid library CCmax; details: mean of both orientations
T22 chain: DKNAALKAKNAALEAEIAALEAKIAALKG

[23] = biological target: T23, 4H324-AA; assay: two-hybrid library CCmax; details: mean of both orientations
T23 chain: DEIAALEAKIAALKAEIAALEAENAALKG

[24] = biological target: T24, 4H2903-AA; assay: two-hybrid library CCmax; details: mean of both orientations
T24 chain: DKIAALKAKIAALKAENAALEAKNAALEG

[25] = biological target: T25, 4H446-AA; assay: two-hybrid library CCmax; details: mean of both orientations
T25 chain: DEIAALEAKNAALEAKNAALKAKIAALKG

[26] = biological target: T26, 4H2947-AA; assay: two-hybrid library CCmax; details: mean of both orientations
T26 chain: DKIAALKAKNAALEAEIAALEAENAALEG

[27] = biological target: T27, 4H349-bA; assay: two-hybrid library CCNG1
T27 chain: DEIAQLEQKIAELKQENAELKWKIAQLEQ

[28] = biological target: T28, 4H3381-bA; assay: two-hybrid library CCNG1
T28 chain: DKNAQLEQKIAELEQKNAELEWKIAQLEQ

[29] = biological target: T29, 4H932-bA; assay: two-hybrid library CCNG1
T29 chain: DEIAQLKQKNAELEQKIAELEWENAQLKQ

[30] = biological target: T30, 4H3364-bA; assay: two-hybrid library CCNG1
T30 chain: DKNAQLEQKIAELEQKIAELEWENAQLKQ

[31] = biological target: T31, 4H949-bA; assay: two-hybrid library CCNG1
T31 chain: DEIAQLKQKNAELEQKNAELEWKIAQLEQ

[32] = biological target: T32, P8A; assay: two-hybrid library CCNG1
T32 chain: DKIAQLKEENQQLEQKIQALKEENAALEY

[33] = biological target: T33, 4H56-bA; assay: two-hybrid library CCNG1
T33 chain: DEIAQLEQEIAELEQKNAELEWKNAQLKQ

[34] = biological target: T34, 4H730-bA; assay: two-hybrid library CCNG1
T34 chain: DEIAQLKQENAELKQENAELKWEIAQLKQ

[35] = biological target: T35, 4H796-bA; assay: two-hybrid library CCNG1
T35 chain: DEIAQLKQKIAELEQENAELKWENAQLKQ

B1: O5-bS (peptide)
chain: DENSQLEQEISELEQKNSELKWEISQLEQ
B1 was tested, and the interaction score [1] was -1.98, the interaction score [2] was -1.98 and the interaction score [3] was -0.729. The interaction score [4] was -1.34 and the interaction score [5] was 2.08.

B2: 4H2604-AA (peptide)
chain: DKIAALKAEIAALEAKIAALKAENAALKG
B2 gave an interaction score [6] of 1.78, an interaction score [7] of -1.69 and an interaction score [8] of -1.37. The interaction score [9] was -0.492, the interaction score [10] was -0.188 and the interaction score [11] was -1.23. The interaction score [12] was 0.216, the interaction score [13] was -1.79 and the interaction score [14] was -1.02. The interaction score [15] was -0.758, the interaction score [16] was 1.84 and the interaction score [17] was -1.38. It also gave an interaction score [18] of 0.155, an interaction score [19] of 1.01 and an interaction score [20] of -1.37. For the same binder, the interaction score [21] was -0.139, the interaction score [22] was -0.774 and the interaction score [23] was 2.07. For the same binder, the interaction score [24] was -0.407, the interaction score [25] was -1.79 and the interaction score [26] was -1.68.

B3: 4H3364-bA (peptide)
chain: DKNAQLEQKIAELEQKIAELEWENAQLKQ
B3 showed an interaction score [27] of -1.53, an interaction score [28] of -0.647 and an interaction score [29] of -0.586. It also gave an interaction score [30] of 1.01, an interaction score [31] of -1.22 and an interaction score [32] of -0.26. The interaction score [33] was 0.349, the interaction score [34] was 0.124 and the interaction score [35] was 0.137.
